Assay results taken from US20250152729A1 (CANCER RESEARCH TECHNOLOGY, published 2025).

T1: human SEMA4B expressed on expi293 cells (human, UniProt Q9NPR2 44-837)
T1 construct: whole, on cells
T1 sequence (looked up): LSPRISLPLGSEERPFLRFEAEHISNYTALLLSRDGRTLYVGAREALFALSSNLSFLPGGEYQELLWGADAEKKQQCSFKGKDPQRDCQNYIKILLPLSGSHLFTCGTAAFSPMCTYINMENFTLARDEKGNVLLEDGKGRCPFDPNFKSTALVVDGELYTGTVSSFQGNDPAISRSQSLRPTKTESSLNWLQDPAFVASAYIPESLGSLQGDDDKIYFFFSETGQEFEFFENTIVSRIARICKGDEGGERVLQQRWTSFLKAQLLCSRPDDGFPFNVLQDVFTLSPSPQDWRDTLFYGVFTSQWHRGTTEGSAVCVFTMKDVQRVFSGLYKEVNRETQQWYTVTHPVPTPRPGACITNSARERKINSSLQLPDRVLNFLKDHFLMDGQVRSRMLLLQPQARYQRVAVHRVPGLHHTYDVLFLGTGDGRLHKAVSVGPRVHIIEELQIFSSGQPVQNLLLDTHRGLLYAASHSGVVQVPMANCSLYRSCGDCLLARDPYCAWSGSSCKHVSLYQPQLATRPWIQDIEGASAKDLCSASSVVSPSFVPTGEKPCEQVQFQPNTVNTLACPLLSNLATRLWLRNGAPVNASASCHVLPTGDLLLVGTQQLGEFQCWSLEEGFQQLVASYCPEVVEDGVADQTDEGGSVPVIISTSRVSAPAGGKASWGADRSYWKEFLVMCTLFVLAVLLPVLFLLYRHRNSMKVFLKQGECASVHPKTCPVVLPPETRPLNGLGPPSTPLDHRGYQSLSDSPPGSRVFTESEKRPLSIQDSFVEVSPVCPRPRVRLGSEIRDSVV

T2: cynomolgus SEMA4A expressed on expi293 cells (UniProt ID G7NV79) (cynomolgus, UniProt Q9H3S1 33-761 (human entry))
T2 construct: Transient transfection in expi293 cells; also called cyno SEMA4A
T2 chain: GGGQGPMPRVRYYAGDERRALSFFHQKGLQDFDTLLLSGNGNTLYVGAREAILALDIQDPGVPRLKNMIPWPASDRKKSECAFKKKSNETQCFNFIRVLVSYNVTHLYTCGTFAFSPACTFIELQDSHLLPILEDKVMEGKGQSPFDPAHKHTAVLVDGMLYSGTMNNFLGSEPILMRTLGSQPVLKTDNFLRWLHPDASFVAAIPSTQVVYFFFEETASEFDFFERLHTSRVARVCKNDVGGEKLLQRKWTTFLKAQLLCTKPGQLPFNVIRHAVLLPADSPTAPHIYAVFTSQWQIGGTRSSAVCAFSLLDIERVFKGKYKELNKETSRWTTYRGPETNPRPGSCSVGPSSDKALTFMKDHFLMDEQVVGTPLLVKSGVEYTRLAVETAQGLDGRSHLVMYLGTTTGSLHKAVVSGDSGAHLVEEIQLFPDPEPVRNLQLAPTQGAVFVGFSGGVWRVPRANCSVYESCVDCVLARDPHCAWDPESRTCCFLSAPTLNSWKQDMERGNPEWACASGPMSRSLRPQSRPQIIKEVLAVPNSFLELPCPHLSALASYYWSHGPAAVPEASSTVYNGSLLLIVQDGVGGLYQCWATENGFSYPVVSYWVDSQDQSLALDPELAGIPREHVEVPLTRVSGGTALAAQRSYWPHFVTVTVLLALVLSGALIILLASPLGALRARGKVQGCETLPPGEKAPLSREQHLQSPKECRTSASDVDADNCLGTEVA

B1: C0120903 human Alya IgG1 (antibody, V domains shown)
VH: EVQLVQSGAEVKKPGSSMKVSCKASGGTFNSYTINWVRQAPGQGLEWVGGFIPIFGTADYAQKFHGRVAITADESMSTAYMELSSLRSEDTAVYYCARAPLGSEPFDYWGQGTMVTVSS
VL: SYVLTQPPSVSVAPGQTARITCGGNNIGSKSVHWYQQKPGQAPVLVVYDDSDRPSGIPERFSGSNSGNTATLTISRVEAGDEADYYCQVWDSSSDHLVFGGGTKLTVL
notes: Fully human, phage display derived; human IgG1 Alya constant (239iCys, S442C, EU); unconjugated
B2: C0120918 human Alya IgG1 (antibody, V domains shown)
VH: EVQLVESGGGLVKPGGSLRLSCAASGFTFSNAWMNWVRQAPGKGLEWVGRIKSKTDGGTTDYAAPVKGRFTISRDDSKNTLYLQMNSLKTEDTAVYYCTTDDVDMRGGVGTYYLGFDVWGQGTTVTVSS
VL: SYELTQPPSVSVSPGQTARITCSGDALPKQYAYWYQQKPGQAPVLVIYKDSERPSGIPERFSGSSSGTTVTLTISGVQAEDEADYYCQSADSSGTWVFGGGTKVTVL
notes: as for B1
B3: C0120917 human Alya IgG1 (antibody, V domains shown)
VH: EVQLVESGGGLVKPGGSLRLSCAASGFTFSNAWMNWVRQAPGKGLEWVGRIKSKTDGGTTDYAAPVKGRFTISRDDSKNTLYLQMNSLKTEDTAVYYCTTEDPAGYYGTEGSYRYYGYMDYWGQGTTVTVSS
VL: NFMLTQPHSVSESPGKTVTISCTASGDTLDNKYVNWYQVRPGSAPATLIFHYEERDSGVPDRFSGSFDASSNSASLTISGLQTADEADYFCQSYDSKRDNLVVFGGGTKVTVL
notes: as for B1
B4: C0120914 human Alya IgG1 (antibody, V domains shown)
VH: QVQLQESGPGLVKPSETLSLTCTVSGGSVSSGRYDWSWIRQPPGKGLEWIGHIYYTGITDYNPSLRSRVTISADKPKNQFSLKLNSVTAADTAVYYCARGPFFDPWGQGTMVTVSS
VL: QSVLTQPPSVSVAPGQTASLTCGANNIGSKSVQWYQQKPGQAPVLVVYDGSDRPSGIPDRFSGSSSENTATLTISRVEAGDEADYYCQLWDSVTDRPVFGGGTKVTVL
notes: as for B1
B5: mouse 5E3 expressed as human IgG1 Alya (antibody, V domains shown)
VH: QVQLQQPGAELVMPGASVKMSCKASGYTFTDYWMHWVKQRPGQGLEWIGAIDTSDSYTSYNQKFKGKATLTVDESSSTAYMQLSSLTSEDSAVYYCARDYGNFYYYAMDYWGQGTSVTVSS
VL: QAVVTQESALTTSPGETVTLTCRSSTGAVTTSNYANWVQEKPDHLFTGLIGGTNNRAPGVPARFSGSLIGDKAALTITGAQTEDEAIYFCALWYSNHWVFGGGTKLTVL
notes: Mouse variable domains on human IgG1 Alya constant (pEU1.22; 239iCys and S442C, EU numbering); purified, unconjugated; also called 5E3 IgG1 Alya
B6: C0120906 human Alya IgG1 (antibody, V domains shown)
VH: EVQLVQSGPEVKKPGASVKISCKASGYKLNDPGVHGVSWVRQAPGQGLEWMGWISTLNGDTRYAQKFQGRVTMATDSSTSTIYMDLRSLKSDDTALYYCARDDYTAIFDFWGRGTLVTVSS
VL: QSVLTQPPSVSVAPGQTASITCGGSNIGSQSVHWYQQKPGQAPVLVVYDDSDRPSGIPERFSGSKSGNTASLILSRVEAGDEADYYCQVWDSSTDHHVFGTGTKVTVL
notes: as for B1
B7: C0120905 human Alya IgG1 (antibody, V domains shown)
VH: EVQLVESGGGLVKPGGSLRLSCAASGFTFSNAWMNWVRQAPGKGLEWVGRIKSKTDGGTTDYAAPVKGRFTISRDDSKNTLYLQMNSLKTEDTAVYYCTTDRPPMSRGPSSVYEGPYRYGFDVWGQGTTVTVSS
VL: NFMLTQPHSVSESPGKTVTISCTGSGGNIVDNFVQWHQQRPGSAPRTVIYEDDQRPSGVPDRFSASVDSSSNSGTLSISGLKTEDEADYYCQSYDGANRWVFGGGTKLTVL
notes: as for B1
B8: 5Hg2-5Lg1 human Alya IgG1 (antibody, V domains shown)
VH: QVQLVQSGAEVKKPGASVKVSCKASGYTFTDYWMHWVRQAPGQRLEWMGAIDTSDSYTSYNQKFKGRVTITRDTSASTAYMELSSLRSEDTAVYYCARDYGNFYYYAMDYWGQGTLVTVSS
VL: QAVVTQEPSLTVSPGGTVTLTCRSSTGAVTTSNYANWFQQKPGQAPRTLIYGTNNRAPWTPARFSGSLLGGKAALTLSGAQPEDEAEYYCALWYSNHWVFGGGTKLTVL
notes: Humanised 5E3; human IgG1 Alya constant (239iCys, S442C, EU), lambda light chain; purified, unconjugated
B9: 5Hg4-5Lg1 human Alya IgG1 (antibody, V domains shown)
VH: QVQLVQSGSELKKPGASVKVSCKASGYTFTDYWMHWVRQAPGQGLEWMGAIDTSDSYTSYNQKFKGRFVFSLDTSVSTAYLQICSLKAEDTAVYYCARDYGNFYYYAMDYWGQGTLVTVSS
VL: QAVVTQEPSLTVSPGGTVTLTCRSSTGAVTTSNYANWFQQKPGQAPRTLIYGTNNRAPWTPARFSGSLLGGKAALTLSGAQPEDEAEYYCALWYSNHWVFGGGTKLTVL
notes: as for B8
B10: 5Hg2-5Lg3 human Alya IgG1 (antibody, V domains shown)
VH: QVQLVQSGAEVKKPGASVKVSCKASGYTFTDYWMHWVRQAPGQRLEWMGAIDTSDSYTSYNQKFKGRVTITRDTSASTAYMELSSLRSEDTAVYYCARDYGNFYYYAMDYWGQGTLVTVSS
VL: QTVVTQEPSFSVSPGGTVTLTCRSSTGAVTTSNYANWYQQTPGQAPRTLIYGTNNRAPGVPDRFSGSILGNKAALTITGAQADDESDYYCALWYSNHWVFGGGTKLTVL
notes: as for B8
B11: 5Hg2-5Lg2 human Alya IgG1 (antibody, V domains shown)
VH: QVQLVQSGAEVKKPGASVKVSCKASGYTFTDYWMHWVRQAPGQRLEWMGAIDTSDSYTSYNQKFKGRVTITRDTSASTAYMELSSLRSEDTAVYYCARDYGNFYYYAMDYWGQGTLVTVSS
VL: QAVVTQEPSLTVSPGGTVTLTCRSSTGAVTTSNYANWFQQKPGQAPRTLIYGTNNRAPWTPARFSGSLLGGKAALTLLGAQPEDEAEYYCALWYSNHWVFGGGTKLTVL
notes: as for B8
B12: 5Hg1-5Lg2 human Alya IgG1 (antibody, V domains shown)
VH: QVQLVQSGAEVKKPGASVKVSCKASGYTFTDYWMHWVRQAPGQGLEWMGAIDTSDSYTSYNQKFKGRVTMTRDTSTSTVYMELSSLRSEDTAVYYCARDYGNFYYYAMDYWGQGTLVTVSS
VL: QAVVTQEPSLTVSPGGTVTLTCRSSTGAVTTSNYANWFQQKPGQAPRTLIYGTNNRAPWTPARFSGSLLGGKAALTLLGAQPEDEAEYYCALWYSNHWVFGGGTKLTVL
notes: as for B8
B13: 5Hg1-5Lg1 human Alya IgG1 (antibody, V domains shown)
VH: QVQLVQSGAEVKKPGASVKVSCKASGYTFTDYWMHWVRQAPGQGLEWMGAIDTSDSYTSYNQKFKGRVTMTRDTSTSTVYMELSSLRSEDTAVYYCARDYGNFYYYAMDYWGQGTLVTVSS
VL: QAVVTQEPSLTVSPGGTVTLTCRSSTGAVTTSNYANWFQQKPGQAPRTLIYGTNNRAPWTPARFSGSLLGGKAALTLSGAQPEDEAEYYCALWYSNHWVFGGGTKLTVL
notes: as for B8
B14: 5Hg4-5Lg5 human Alya IgG1 (antibody, V domains shown)
VH: QVQLVQSGSELKKPGASVKVSCKASGYTFTDYWMHWVRQAPGQGLEWMGAIDTSDSYTSYNQKFKGRFVFSLDTSVSTAYLQICSLKAEDTAVYYCARDYGNFYYYAMDYWGQGTLVTVSS
VL: QSVVTQPPSVSGAPGQRVTISCRSSTGAVTTSNYANWYQQLPGTAPKLLIYGTNNRAPGVPDRFSGSKSGASASLAITGLQAEDEADYYCALWYSNHWVFGGGTKLTVL
notes: as for B8
B15: 5Hg4-5Lg4 human Alya IgG1 (antibody, V domains shown)
VH: QVQLVQSGSELKKPGASVKVSCKASGYTFTDYWMHWVRQAPGQGLEWMGAIDTSDSYTSYNQKFKGRFVFSLDTSVSTAYLQICSLKAEDTAVYYCARDYGNFYYYAMDYWGQGTLVTVSS
VL: QSALTQPPSVSGSPGQSVTISCRSSTGAVTTSNYANWYQQPPGTAPKLMIYGTNNRAPGVPDRFSGSKSGNTASLTISGLQAEDEADYYCALWYSNHWVFGGGTKLTVL
notes: as for B8

Biological target: T1, human SEMA4B expressed on expi293 cells
Assay: Mirrorball direct binding, dilution series on expi293 cells transiently transfected with human SEMA4B, anti-human Alexa Fluor 647
Description: (§1) Hits from the primary screening were re-formatted into the human Alya IgG1 vector and re-expressed and purified as described in section 4.1. In addition, a single clone was identified that contained an Asparagine deamidation motif (Asn Gly) within its VHCDR2. This potential sequence liability was de-risked by synthesising de novo two clonal variant VH genes (Asn Ala and Gln Gly) and cloning these sequences into the human Alya IgG1 expression vector. To determine the specificity profile of each purified human Alya IgG1, a dilution series was tested for binding to human SEMA4A, mouse SEMA4A, cyno SEMA4A, human SEMA4B and mock transfected cells (transient transfections set up in expi 293 cells.) The five assays employed methods described in section 2.3, using the appropriate cells and substituting the un-purified scFv periplasmic preparation with the recombinant human Alya IgG1 dilution series. Data was analysed as Count x median mean intensity (x FLU).

Row | Binder | binding result
1 | B1 | no binding (tested: log (M) -8 (1e-8 M))
2 | B2 | no binding (tested: log (M) -8 (1e-8 M))
3 | B3 | no binding (tested: log (M) -8 (1e-8 M))
4 | B4 | no binding (tested: log (M) -8 (1e-8 M))
5 | B5 | no binding (tested: log (M) -8 (1e-8 M))
6 | B6 | no binding (tested: log (M) -8 (1e-8 M))
7 | B7 | no binding (tested: log (M) -8 (1e-8 M))

Biological target: T2, cynomolgus SEMA4A expressed on expi293 …
Assay: Mirrorball direct binding, dilution series on expi293 cells transiently transfected with cyno SEMA4A, anti-human Alexa Fluor 647
Description: as §1

Row | Binder | binding result
8 | B8 | binds
9 | B9 | binds
10 | B10 | binds
11 | B11 | binds
12 | B12 | binds
13 | B13 | binds
14 | B14 | binds
15 | B15 | binds
